US7384632B2, “Agonist anti-trk-C monoclonal antibodies” (Genentech, Inc., priority 2000, dated 2008)
Substitutions are numbered along the chain they refer to. Read-outs that look alike come from different tables or passages of the source.

Assays:
p75^NTR (LNGFR, p75) = biological target: T1, p75^NTR (LNGFR, p75) (Homo sapiens, UniProt P08138); conditions: equilibrium binding studies, neurotrophin-responsive neurons; cited from earlier work
T1 construct: host or cells: neurotrophin-responsive neurons
T1 sequence (P08138 29-427): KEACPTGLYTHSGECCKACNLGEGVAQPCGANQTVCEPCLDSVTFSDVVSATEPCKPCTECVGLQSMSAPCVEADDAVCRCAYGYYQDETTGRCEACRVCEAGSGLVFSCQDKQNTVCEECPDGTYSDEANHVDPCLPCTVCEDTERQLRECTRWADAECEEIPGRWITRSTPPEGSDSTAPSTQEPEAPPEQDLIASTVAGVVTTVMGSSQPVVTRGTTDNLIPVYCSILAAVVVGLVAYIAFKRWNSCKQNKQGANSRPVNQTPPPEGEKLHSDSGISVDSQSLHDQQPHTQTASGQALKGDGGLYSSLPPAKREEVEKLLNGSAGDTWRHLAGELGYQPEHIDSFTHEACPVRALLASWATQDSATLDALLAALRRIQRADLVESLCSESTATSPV

pyridoxine toxicity = conditions: cited from earlier work
[1] = system: cisplatinum induced neuropathy; assay: Cisplatinum induced neuropathy in adult rats, H-wave sensory conduction velocity; format: in vivo, rat; conditions: 1 mg/kg three times per week subcutaneously for four weeks, continued cisplatinum
Description: In order to create an animal model of cisplatinum induced neuropathy, adult rats were dosed with cisplatinum twice a week for sixteen weeks with 1 mg/kg intraperitoneally (IP). At this point, rats were split into four groups. All four groups continued receiving cisplatinum twice weekly. […] The NT-3 doses were given subcutaneously, while the Mabs and saline were administered IV. This treatment regime was continued for an additional four weeks, for a total of twenty weeks of cisplatinum administration.

[2] = system: cisplatin sensory neuropathy; conditions: rats, cited from earlier work
gD-trkC = gD-trkC (Homo sapiens, UniProt Q16288); assay: BIAcore surface plasmon resonance (SPR) affinity; format: binding
Description: Affinities of anti-trkC agonist monoclonal antibodies were determined using BIAcore-2000™ surface plasmon resonance (SPR) system (BIAcore, Inc., Piscataway, N.J.). CM5 biosensor chips were activated with N-ethyl-N′-(3-dimethylaminopropyl)-carbodiimide hydrochloride (EDC) and N-hydroxysuccinimide (NHS) according to the supplier's instructions. In the first series of binding experiments, the antigen, gD-tagged trkC, was diluted into 10 mM sodium acetate buffer (pH 4.8), and injected over the activated chip at a concentration of 0.09 mg/mL. Using variable exposure times, four ranges of antigen density were achieved: 14,000-17,000 response units (RU), 7000-9000 RU, 2000-3000 RU, and 400-600 RU. The chip was blocked with ethanolamine.
In the first series of kinetic measurements, anti-trkC antibodies (IgG's) were diluted into running buffer (PBS containing 0.05% Tween-20 and 0.01% sodium azide) and 0.03 mL (667 nM) was injected over the biosensor chip at 25° C. at a flow rate of 0.01 mL/min.
In a second series of experiments, the IgG's (0.1 mg/mL in 10 mM sodium acetate, pH 4.8) were immobilized as described above, except that antibody density was limited to 1000-2000 RU. Two-fold serial dilutions of gD-trkC in the range of […] to 29 nM were then injected over the biosensor chip for kinetics measurements as described above.
The dissociation phase of each kinetic curve were fit to a single exponential dissociation rate (koff), and these rates were used in the calculation of the association rate (kon) from the injection phase, using a simple 1:1 Langmuir binding model (Lofas & Johnsson, 1990).
Equilibrium dissociation constants, Kd's, from SPR measurements were calculated as the ratio koff/kon.
The affinities of anti-trkC antibodies for gD-trkC were measured in SPR kinetics experiments with either antigen or antibody immobilized. Apparent affinities determined from experiments using low densities of immobilized antigen (0.4 to 0.6 ng/mm2), were generally consistent with those determined in experiments using immobilized IgG (see Table 2). […] In some cases, no binding could be detected when trkC was injected over immobilized IgG. This may have occurred because immobilization of the IgG led to steric blocking of the antigen-binding site.

trkC L286H = biological target: T2, trkC L286H (Homo sapiens, UniProt Q16288, L317H/S70N); assay: Binding to trkC single amino acid mutants (EC50 ratio); conditions: NB = no binding observed
T2 construct: made in house
Description: (§1) Site-directed mutagenesis approach was used to determine the contribution of selected individual amino acid residues of domain 5 in the recognition by anti-trkC antibodies. […] A total of 26 single amino acid mutations were made and evaluated for their effect on binding to anti-trkC monoclonal antibodies. The values shown in Table 5 represent the ratio of binding to anti-trkC antibody of mutant vs wildtype trkC.

trkC R285A = biological target: T3, trkC R285A (Homo sapiens, UniProt Q16288, R316A/S70N); assay: as above; conditions: NB = no binding observed
T3 construct: made in house
Description: as §1

trkC N335A = system: trkC N335A; design: species or system human; conditions: NB = no binding observed
Description: (§2) A total of 26 single amino acid mutations were made and evaluated for their effect on binding to anti-trkC monoclonal antibodies.

trkC E287K = biological target: T4, trkC E287K (Homo sapiens, UniProt Q16288, E318K/S70N); assay: Binding to trkC single amino acid mutants (EC50 ratio); conditions: NB = no binding observed
T4 construct: made in house
Description: as §1

trkC H318A = biological target: T5, trkC H318A (Homo sapiens, UniProt Q16288, H349A/S70N); assay: as above
T5 construct: made in house
Description: as §2

trkC L284E = biological target: T6, trkC L284E (Homo sapiens, UniProt Q16288, L315E/S70N); assay: as above; conditions: NB = no binding observed
T6 construct: made in house
Description: as §1

wildtype trkC = wildtype trkC (Homo sapiens, UniProt Q16288, S70N); assay: as above; conditions: wildtype trkC (reference)
Description: as §1

[3] = gD-trkC binding to immobilized IgG's (1000-3000 RU)

NGF: nerve growth factor, first identified member of the neurotrophin family
Kd (p75^NTR (LNGFR, p75)): 2 nM

NT-3: neurotrophin-3, the natural ligand of trkC receptor; positive control and comparator
behavioral and electrophysiological sequelae of pyridoxine toxicity (beam-walking, H waves) (pyridoxine toxicity; NT-3 5-20 mg/kg/day, s.c., during chronic pyridoxine treatment): largely attenuated | degeneration of sensory fibers in the dorsal column of the spinal cord (pyridoxine toxicity; NT-3 administration during chronic pyridoxine treatment): prevented degeneration of sensory fibers in the dorsal column of the spinal cord | sensory conduction velocity (H-wave) [1]: improvement of this lowered conduction velocity | cytoplasmic distribution of neurofilament protein in large sensory neurons and numbers of myelinated fibers in sural nerves ([2]; cisplatin): corrected | H-reflex-related sensory nerve conduction velocity reduced by cisplatin [2]: restored to normal levels

B1: BDNF: brain-derived neurotrophic factor, a neurotrophin (protein, UniProt P23560 19-247, looked up)
Neurotrophic factor BDNF …: APMKEANIRGQGGLAYPGVRTHGTLESVNGPKAGSRGLTSLADTFEHVIEELLDEDQKVRPNEENNKDADLYTSRVMLSSQVPLEPPLLFLLEEYKNYLDAANMSMRVRRHSDPARRGELSVCDSISEWVTAADKKTAVDMSGGTVTVLEKVPVSKGQLKQYFYETKCNPMGYTKEGCRGIDKRHWNSQCRTTQSYVRALTMDSKKRIGWRFIRIDTSCVCTLTIKRGR
Kd (p75^NTR (LNGFR, p75)): 2 nM

B2: Mab 2345: human IgG2 agonist anti-trkC monoclonal antibody; hybridoma ATCC PTA-2146; heavy chain SEQ ID NO: 47, light chain SEQ ID NO: 54 (antibody, listed as Homo sapiens, V domains shown)
VH: NQVQLQESGPGLVKPSQTLSLTCTVSGGSISSGGYYWSWIRQHPEKGLEWIGYIFYSGRTYYNPSLKSRVTISVDTSKNQFSLKLNSVTAADTAVYYCARERIAAAGADYYYNGLDVWGQGTTVTVSSC
VL: NEIVLTQSPGTLSLSPGERATLSCRASQSVSSNYLTWYQQKPGQAPRLLIYGASSRATGIPDRFSGSGSGTDFTLTISRLEPEDFAVYYCQQYGRSPPITFGQGTRLEIKRC
Kd, Immobilized IgG (gD-trkC; [3]): NDB

B3: Mab 2349: human IgG4 agonist anti-trkC monoclonal antibody; hybridoma ATCC PTA-2153; heavy chain SEQ ID NO: 48, light chain SEQ ID NO: 55 (antibody, listed as Homo sapiens, V domains shown)
VH: B2 VH with G34Y, E45G, F55Y, R59S, V70L, N86S, A108T, D116A
VL: B2 VL with E2G, L22F, V30G, N33T, T36A
Kd, Immobilized IgG (gD-trkC; [3]): NDB

B4: Mab 2250: murine IgG1 agonist anti-trkC monoclonal antibody; hybridoma ATCC PTA-2149; heavy chain SEQ ID NO: 42, light chain SEQ ID NO: 49 (antibody)
heavy: NQVQLQQSGAELMQPGASVKISCKSTGYTFSNFWIEWVKQRPGHGLEWIGEILPGSDNTNYNEKFKGKATFTADTSSNTAYMQLSSLTSEDSAVYYCARKNRNYYGNYVVWGQGTLVTVSAC
light: NDIVMTQSPASLAVSLGQRATISYRASKSVSTSGYSYMHWNQQKPGQPPRLLIYLVSNLESGVPARFSGSGSGTDFTLNIHPVEEEDAATYYCQHIRELTRSARGQSWKKRC
modifications: Murine
ratio of binding of mutant vs wildtype trkC (EC50 divided by EC50 of wildtype trkC) (trkC L286H): 0.4 | ratio of binding of mutant vs wildtype trkC (EC50 divided by EC50 of wildtype trkC) (trkC R285A): 2.6 | ratio of binding of mutant vs wildtype trkC (EC50 divided by EC50 of wildtype trkC) (trkC N335A): 0.5 | ratio of binding of mutant vs wildtype trkC (EC50 divided by EC50 of wildtype trkC) (trkC E287K): 0.8 | ratio of binding of mutant vs wildtype trkC (EC50 divided by EC50 of wildtype trkC) (trkC H318A): 1.0 | ratio of binding of mutant vs wildtype trkC (EC50 divided by EC50 of wildtype trkC) (trkC L284E): 0.6 | ratio of binding of mutant vs wildtype trkC (EC50 divided by EC50 of wildtype trkC) (wildtype trkC): 1.0 | Kd (gD-trkC; IgG's binding to immobilized gD-trkC (400-600 RU), read-out: Kd, Immobilized gD-trkC): 8.7 nM | Kd (gD-trkC; Table 3, read-out: Affinity Kd): 8.7 nM | Kd (gD-trkC; gD-trkC binding to immobilized IgG's (1000-3000 RU), read-out: Kd, Immobilized IgG): 28 nM
